The text below walks through data of patent WO2015087187A1 (dated 2015).

Usually Kd stands for the concentration at which binding is half-saturated. A word on the koff: it is the first-order rate constant of dissociation. By kon is commonly meant the rate constant with which the complex forms.

In assay [1] the target is T1, recombinant human SOST (rhSOST) (human, UniProt Q9BQB4 24-213).
T1 construct: Treated as one molecule; also called recombinant human SOST protein; human sclerostin
T1 sequence: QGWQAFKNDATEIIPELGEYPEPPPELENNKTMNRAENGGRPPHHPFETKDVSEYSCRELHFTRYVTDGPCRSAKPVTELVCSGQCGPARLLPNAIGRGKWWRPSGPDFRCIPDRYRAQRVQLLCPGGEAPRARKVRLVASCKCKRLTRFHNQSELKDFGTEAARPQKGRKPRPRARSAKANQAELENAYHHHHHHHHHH
The experiment in a line: SPR Biacore T200, IgG captured via anti-human Fc, rhSOST analyte, 37 C.

Assay [2] has as its target T1, recombinant human SOST (rhSOST). The experiment in a line: cell-based or functional assay.

B1: DM21 (antibody, V domains shown)
VH: EVQLLESGGGLVQPGGSLRLSCAASGHTFSDYWMQWVRQAPGKGLEWIGAIYPGDGDTRYNQKFKDRFTISRDNSKNTLYLQMNSLRAEDTAVYYCARSMDYWGQGTLVTVSS
VL: DIVMTQSPDSLAVSLGERATINCRASKTVDSYGNSFMHWFQQKPGQPPKLLIYHSSNLESGVPDRFSGSGSGTDFTLTISSLQAEDVAVYYCLQTIEDPYTFGQGTKLEIK
notes: also called mH1/mL2
As to B1, in assay [1], the Kd is 8 pM, the koff turned out to be 7.41e-05 s⁻¹ and the kon came to 8.86e+06 M⁻¹ s⁻¹. Besides, the “EC50, neutralization of rhSOST-mediated inhibition of Wnt-10B luciferase reporter activity in U-2OS-TF-Wnt10B cells” value in assay [2] is 5.53 ug/ml (printed 'Mg/ml').

B2: DM4 (antibody, human IgG2, kappa, V domains shown)
VH: EVQLLESGGGLVQPGGSLRLSCAASGHTFSDYWMQWVRQAPGKGLEWVGAIYPGDGDTRYNQKFKDRFTISRDNSKNTLYLQMNSLRAEDTAVYYCARSMDYWGQGTLVTVSS
VL: DIVMTQSPDSLAVSLGERATINCRASKTVDSYGNSFMHWFQQKPGQPPKLLIHHSSNLESGVPDRFSGSGSGTDFTLTISSLQAEDVAVYYCLQTIEFPYTFGQGTKLEIKR
notes: mAb names lost in this copy; also called mH10/mL13
On to B2, for which, in assay [1], the Kd amounted to 130 pM, the koff was found to be 0.000508 s⁻¹ and the kon was 3.91e+06 M⁻¹ s⁻¹. Moreover, the “EC50, neutralization of rhSOST-mediated inhibition of Wnt-10B luciferase reporter activity in U-2OS-TF-Wnt10B cells” value in assay [2] is 2.07 ug/ml (printed 'Mg/ml').

B3: DM32 (antibody, V domains shown)
VH: EVQLLESGGGLVQPGGSLRLSCAASGFTFSDYWMQWVRQAPGKGLEWVGAIYPGDGDTRYNQKFKDRFTISRDNSKNTLYLQMNSLRAEDTAVYYCARSMDYWGQGTLVTVSS
VL: DIVMTQSPDSLAVSLGERATINCRASKTVDSYGNSFMHWFQQKPGQPPKLLIYHSSNLESGVPDRFSGSGSGTDFTLTISSLQAEDVAVYYCLQTIEDPYTFGQGTKLEIK
notes: also called mH11/mL2
With B3, in assay [1], the Kd amounted to 54 pM, the koff stood at 0.000419 s⁻¹ and the kon was found to be 7.75e+06 M⁻¹ s⁻¹.

B4: DM30 (antibody, V domains shown)
VH: EVQLLESGGGLVQPGGSLRLSCAASGHTFSDYWMQWVRQAPGKGLEWVGAIYPGDGDTRYNQKFKDRFTISRDNSKNTLYLQMNSLRAEDTAVYYCARSMDYWGQGTLVTVSS
VL: DIVMTQSPDSLAVSLGERATINCRASKTVDSYGNSFMHWYQQKPGQPPKLLIYHSSNLESGVPDRFSGSGSGTDFTLTISSLQAEDVAVYYCLQTIEDPYTFGQGTKLEIK
notes: also called mH10/mL3
B4: in assay [1], the Kd is 45 pM, the koff turned out to be 0.000239 s⁻¹ and the kon was found to be 5.34e+06 M⁻¹ s⁻¹.

B5: DM33 (antibody, V domains shown)
VH: EVQLLESGGGLVQPGGSLRLSCAASGFTFSDYWMQWVRQAPGKGLEWVGAIYPGDGDTRYNQKFKDRFTISRDNSKNTLYLQMNSLRAEDTAVYYCARSMDYWGQGTLVTVSS
VL: DIVMTQSPDSLAVSLGERATINCRASKTVDSYGNSFMHWYQQKPGQPPKLLIYHSSNLESGVPDRFSGSGSGTDFTLTISSLQAEDVAVYYCLQTIEHPYTFGQGTKLEIK
notes: also called mH11/mL15
As to B5, in assay [1], the Kd came out at 93 pM, the dissociation rate constant (koff) stood at 0.000563 s⁻¹ and the on-rate (kon) came to 6.03e+06 M⁻¹ s⁻¹.

B6: DM22 (antibody, V domains shown)
VH: EVQLLESGGGLVQPGGSLRLSCAASGFTFTDYWMQWVRQAPGKGLEWIGAIYPGDGDTRYNQKFKDRFTISRDNSKNTLYLQMNSLRAEDTAVYYCARSMDYWGQGTLVTVSS
VL: DIVMTQSPDSLAVSLGERATINCRASKTVDSYGNSFMHWFQQKPGQPPKLLIHHSSNLESGVPDRFSGSGSGTDFTLTISSLQAEDVAVYYCLQTIEDPYTFGQGTKLEIK
notes: also called mH2/wt
B6: in assay [1], the Kd came out at 15 pM, the koff came out at 0.000152 s⁻¹ and the kon was determined as 1.04e+07 M⁻¹ s⁻¹.

B7: DM31 (antibody, V domains shown)
VH: EVQLLESGGGLVQPGGSLRLSCAASGHTFSDYWMQWVRQAPGKGLEWVGAIYPGDGDTRYNQKFKDRFTISRDNSKNTLYLQMNSLRAEDTAVYYCARSMDYWGQGTLVTVSS
VL: DIVMTQSPDSLAVSLGERATINCRASKTVDSYGNSFMHWYQQKPGQPPKLLIYHSSNLESGVPDRFSGSGSGTDFTLTISSLQAEDVAVYYCLQTIEDSYTFGQGTKLEIK
notes: also called mH10/mL19
As to B7, in assay [1], the Kd is 816 pM, the koff turned out to be 0.00171 s⁻¹ and the kon was 2.1e+06 M⁻¹ s⁻¹.

B8: DM34 (antibody, V domains shown)
VH: EVQLLESGGGLVQPGGSLRLSCAASGFTFSDYWMQWVRQAPGKGLEWVGAIYPGDGDTRYNQKFKDRFTISRDNSKNTLYLQMNSLRAEDTAVYYCARSMDYWGQGTLVTVSS
VL: DIVMTQSPDSLAVSLGERATINCRASKTVDSYGNSFMHWYQQKPGQPPKLLIYHSSNLESGVPDRFSGSGSGTDFTLTISSLQAEDVAVYYCLQTIEDSYTFGQGTKLEIK
notes: also called mH11/mL19
In the case of B8, in assay [1], the Kd was 1650 pM, the koff was 0.00356 s⁻¹ and the kon amounted to 2.16e+06 M⁻¹ s⁻¹.

B9: DM29 (antibody, V domains shown)
VH: EVQLLESGGGLVQPGGSLRLSCAASGHTFSDYWMQWVRQAPGKGLEWVGAIYPGDGDTRYNQKFKDRFTISRDNSKNTLYLQMNSLRAEDTAVYYCARSMDYWGQGTLVTVSS
VL: DIVMTQSPDSLAVSLGERATINCRASKTVDSYGNSFMHWFQQKPGQPPKLLIYHSSNLESGVPDRFSGSGSGTDFTLTISSLQAEDVAVYYCLQTIEDPYTFGQGTKLEIK
notes: also called mH10/mL2
In the case of B9, in assay [1], the Kd is 14 pM, the koff turned out to be 0.000101 s⁻¹ and the kon was 7.41e+06 M⁻¹ s⁻¹.

B10: DM25 (antibody, V domains shown)
VH: EVQLLESGGGLVQPGGSLRLSCAASGHTFTDYWMQWVRQAPGKGLEWVGAIYPGDGDTRYNQKFKDRFTISRDNSKNTLYLQMNSLRAEDTAVYYCARSMDYWGQGTLVTVSS
VL: DIVMTQSPDSLAVSLGERATINCRASKTVDSYGNSFMHWFQQKPGQPPKLLIHHSSNLESGVPDRFSGSGSGTDFTLTISSLQAEDVAVYYCLQTIEDPYTFGQGTKLEIK
notes: also called mH4/wt
On to B10, for which, in assay [1], the Kd was 17 pM, the koff came to 0.000101 s⁻¹ and the kon is 5.81e+06 M⁻¹ s⁻¹.

B11: DM23 (antibody, V domains shown)
VH: EVQLLESGGGLVQPGGSLRLSCAASGFTFSDYWMQWVRQAPGKGLEWIGAIYPGDGDTRYNQKFKDRFTISRDNSKNTLYLQMNSLRAEDTAVYYCARSMDYWGQGTLVTVSS
VL: DIVMTQSPDSLAVSLGERATINCRASKTVDSYGNSFMHWFQQKPGQPPKLLIHHSSNLESGVPDRFSGSGSGTDFTLTISSLQAEDVAVYYCLQTIEDPYTFGQGTKLEIK
notes: also called mH3/wt
As for B11, in assay [1], the dissociation constant Kd came to 10 pM, the koff is 0.000134 s⁻¹ and the kon is 1.39e+07 M⁻¹ s⁻¹.

B12: DM28 (antibody, V domains shown)
VH: EVQLLESGGGLVQPGGSLRLSCAASGHTFTDYWMQWVRQAPGKGLEWIGAIYPGDGDTRYAQSVKGRFTISRDNSKNTLYLQMNSLRAEDTAVYYCARSMDYWGQGTLVTVSS
VL: DIVMTQSPDSLAVSLGERATINCRASKTVDSYGNSFMHWFQQKPGQPPKLLIHHSSNLESGVPDRFSGSGSGTDFTLTISSLQAEDVAVYYCLQTIEDPYTFGQGTKLEIK
notes: also called mH8/wt
In the case of B12, in assay [1], the Kd was determined as 99 pM, the koff was found to be 0.00035 s⁻¹ and the kon came out at 3.52e+06 M⁻¹ s⁻¹.

B13: DM24 (antibody, V domains shown)
VH: EVQLLESGGGLVQPGGSLRLSCAASGFTFSDYWMQWVRQAPGKGLEWIGAIYPGDGDTRYNQKFKDRFTISRDNSKNTLYLQMNSLRAEDTAVYYCARSMDYWGQGTLVTVSS
VL: DIVMTQSPDSLAVSLGERATINCRASKTVDSYGNSFMHWFQQKPGQPPKLLIYHSSNLESGVPDRFSGSGSGTDFTLTISSLQAEDVAVYYCLQTIEDPYTFGQGTKLEIK
notes: also called mH3/mL2
Take B13: in assay [1], the Kd is 35 pM, the koff came out at 0.000239 s⁻¹ and the kon was determined as 6.9e+06 M⁻¹ s⁻¹.

B14: DM26 (antibody, V domains shown)
VH: EVQLLESGGGLVQPGGSLRLSCAASGHTFTDYWMQWVRQAPGKGLEWISAIYPGDGDTRYNQKFKDRFTISRDNSKNTLYLQMNSLRAEDTAVYYCARSMDYWGQGTLVTVSS
VL: DIVMTQSPDSLAVSLGERATINCRASKTVDSYGNSFMHWFQQKPGQPPKLLIHHSSNLESGVPDRFSGSGSGTDFTLTISSLQAEDVAVYYCLQTIEDPYTFGQGTKLEIK
notes: also called mH5/wt
Regarding B14, in assay [1], the Kd stood at 53 pM, the off-rate (koff) is 0.000222 s⁻¹ and the kon is 4.2e+06 M⁻¹ s⁻¹.

B15: DP99 (antibody, V domains shown)
VH: EVMLAESGGGLVQPGGSLQLSCAASGFTFSIYAMSWVRQTPEKRLEWVATISGGDTYTYYADSVKGRFTISRDNAKNTLYLHMTGLRSEDTALYYCARHGYDDFDYWGLGTTLTVSS
VL: DVVLTQIPLTLSVTIGQPATISCKSSQSLLDNDGETYLNWLLVRPGQSPKRLIYQVSKLDSGFPERFTGGGSGTDFTLKISRVEAEDLGIYYCWQGTHFPHTFGGGTKLEIK
notes: also called pH99/pL99
Turning to B15, in assay [1], the Kd was 103 pM, the koff was determined as 0.003 s⁻¹ and the kon amounted to 2.9e+07 M⁻¹ s⁻¹. In assay [2], the “EC50, neutralization of rhSOST-mediated inhibition of Wnt-10B luciferase reporter activity in U-2OS-TF-Wnt10B cells” value is 5.95 ug/ml (printed 'Mg/ml') and the “EC50, restoring WNT10b-stimulated luciferase activity suppressed by 1 ug/ml rhSOST in U2OS TOPFlash cells” value is 37000 pM.

B16: DP1 (antibody, human IgG2, kappa, V domains shown)
VH: EVQLVESGGGLVQPGGSLRLSCAASGFTFSIYAMSWVRQAPGKGLEWVALISGGDTYTYYADSVKGRFTISRDNAKNSLYLQMNSLRAEDTAVYYCARHGYDDFDYWGQGTLVTVSS
VL: DVVMTQSPLSLPVTLGQPASISCRSSQSLLDNDGETYLNWFQQRPGQSPRRLIYQVSKLDSGVPDRFSGSGSGTDFTLKISRVEAEDVGVYYCWQGTHFPHTFGGGTKVEIKR
notes: also called pH1/pL1
On to B16, for which, in assay [1], the Kd is 3700 pM, the koff was 0.00667 s⁻¹ and the kon came out at 1.8e+06 M⁻¹ s⁻¹. Moreover, in assay [2], the “EC50, neutralization of rhSOST-mediated inhibition of Wnt-10B luciferase reporter activity in U-2OS-TF-Wnt10B cells” value was 22 ug/ml (printed 'Mg/ml').
